The values that follow come from article PMC6116751, “An enzymatic system for decolorization of wastewater dyes using immobilized CueO laccase‐like multicopper oxidase on poly‐3‐hydroxybutyrate” (Microbial Biotechnology, 2018).

Substrate in this data set: COc1cccc(OC)c1O
The data set can be described thus: purified protein. In kind it is biochemical, Escherichia coli. The following applies: soluble enzyme, 20 mM Tris pH 6.5, 10 μM Cu2+, 30 °C.

B1: BioF–CueO (CueO laccase-like multicopper oxidase fused to BioF tag) (Escherichia coli K-12) (protein)
chain: AERPTLPIPDLLTTDARNRIQLTIGAGQSTFGGKTATTWGYNGNLLGPAVKLQRGKAVTVDIYNQLTEETTLHWHGLEVPGEVDGGPQGIIPPGGKRSVTLNVDQPAATCWFHPHQHGKTGRQVAMGLAGLVVIEDDEILKLMLPKQWGIDDVPVIVQDKKFSADGQIDYQLDVMTAAVGWFGDTLLTNGAIYPQHAAPRGWLRLRLLNGCNARSLNFATSDNRPLYVIASDGGLLPEPVKVSELPVLMGERFEVLVEVNDNKPFDLVTLPVSQMGMAIAPFDKPHPVMRIQPIAISASGALPDTLSSLPALPSLEGLTVRKLQLSMDPMLDMMGMQMLMEKYGDQAMAGMDHSQMMGHMGHGNMNHMNHGGKFDFHHANKINGQAFDMNKPMFAAAKGQYERWVISGVGDMMLHPFHIHGTQFRILSENGKPPAAHRAGWKDTVKVEGNVSEVLVKFNHDAPKEHAYMAHCHLLEHEDTGMMLGFTV
notes: signal peptide absent (the primer starts at mature Ala-Glu-Arg-Pro-Thr); cueO amplified from pCueO (pASK-IBA3 derivative); plasmid pDB2 (pET-21d); expressed in E. coli BL21(DE3), butyl sepharose; tag kept
One may read the Km as the concentration of substrate that gives half-maximal velocity. As usually defined, the kcat is the number of substrate molecules converted per active site and unit of time at saturation. Broadly, the kcat/Km is the second-order rate constant that governs catalysis at low substrate concentration. As for B1, the Km stood at 400 ± 100 µM, the kcat was found to be 4.3 ± 0.1 s⁻¹ and the kcat/Km was determined as 10700 M⁻¹ s⁻¹.
